T1: Human LAG-3 on cells (human, UniProt P18627 23-525)
T1 construct: whole, on cells; also called human LAG-3 expressing EL4 cells
T1 sequence (looked up): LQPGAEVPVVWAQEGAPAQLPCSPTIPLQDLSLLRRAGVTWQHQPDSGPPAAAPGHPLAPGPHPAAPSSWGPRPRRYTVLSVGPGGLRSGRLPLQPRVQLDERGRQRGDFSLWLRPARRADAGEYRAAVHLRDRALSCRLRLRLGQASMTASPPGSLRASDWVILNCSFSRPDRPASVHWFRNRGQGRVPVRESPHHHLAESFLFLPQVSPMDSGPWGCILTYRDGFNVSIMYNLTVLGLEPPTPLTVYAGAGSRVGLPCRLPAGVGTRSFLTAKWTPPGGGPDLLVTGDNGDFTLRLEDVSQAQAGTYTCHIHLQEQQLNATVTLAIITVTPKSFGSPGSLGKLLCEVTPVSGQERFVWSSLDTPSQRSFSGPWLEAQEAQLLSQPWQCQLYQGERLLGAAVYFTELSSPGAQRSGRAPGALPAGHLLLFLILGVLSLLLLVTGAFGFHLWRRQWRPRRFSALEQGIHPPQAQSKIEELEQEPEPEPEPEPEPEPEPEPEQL

T2: Recombinant human LAG-3 ECD-His6 (human, UniProt P18627 23-433)
T2 construct: Entry holds the ECD with the C-terminal His6; also called LAG-3-His; recombinant human LAG-3-His
T2 sequence: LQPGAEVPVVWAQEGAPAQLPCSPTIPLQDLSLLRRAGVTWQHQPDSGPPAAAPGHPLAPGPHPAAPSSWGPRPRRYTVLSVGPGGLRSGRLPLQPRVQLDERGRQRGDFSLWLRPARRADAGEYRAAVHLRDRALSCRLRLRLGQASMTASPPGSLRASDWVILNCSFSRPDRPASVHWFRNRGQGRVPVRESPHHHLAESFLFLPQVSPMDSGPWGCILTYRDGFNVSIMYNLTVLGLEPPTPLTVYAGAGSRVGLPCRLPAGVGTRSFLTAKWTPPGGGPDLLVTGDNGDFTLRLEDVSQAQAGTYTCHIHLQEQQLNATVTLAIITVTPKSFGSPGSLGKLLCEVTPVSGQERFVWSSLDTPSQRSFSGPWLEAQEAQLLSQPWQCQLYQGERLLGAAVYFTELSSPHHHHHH


Columns and labels:
[1] = target: T1, Human LAG-3 on cells; experiment: Flow cytometry (MFI dose response) on human LAG-3 expressing EL4 cells
Experimental: Human LAG-3 expressing EL4 cells were incubated with either IMP731, H5L7WT or H5L7BW Alexa647-conjugated antibodies at varying concentrations of up to 50 μg/ml for 30 minutes at room temperature. Cells were washed with FACS buffer (PBS+0.5% BSA) to remove unbound antibody.
EL4 cells and CD3⁺ T cells were analysed by FACS using a Beckman Coulter FC 500 flow cytometer. FACS raw data were analysed using CXP Analysis software (Beckman Coulter). The data was initially plotted on a forward-scatter versus side-scatter plot and the population of cells of interest were gated. This gated population was then plotted as a histogram displaying fluorescence intensity and the mean fluorescence intensity (MFI) calculated. MFI values were then plotted in GraphPad Prism 5 software to generate dose response curves.

[2] = target: T2, Recombinant human LAG-3 ECD-His6; experiment: SPR Biacore T100, Anova comparison of kd, 3 runs
Experimental: (§1) Wild type fucosylated and afucosylated antibodies were compared for their ability to bind to recombinant human LAG-3 ECD with a C-terminal His6 (SEQ ID NO:51) using the Biacore™ T100 (GE Healthcare™). Protein A was immobilised on a CM5 chip by primary amine coupling. This surface was then used to capture the humanised antibodies. Recombinant human LAG-3 ECD-His6 was then passed over the captured antibodies at 32, 8, 2, 0.5 and 0.125 nM and regeneration was carried out using 50 mM NaOH. The binding curves were double referenced with buffer injection (i.e. 0 nM) and the data was fitted to the T100 analysis software using the 1:1 model. The run was carried out at 25° C., using HBS-EP as the running buffer.
(§2) In order to investigate the statistical significance of this kinetic data, this experiment was repeated 3 times with the same batch of the four antibodies and the chimeric control. KD, ka and kd parameters were each log (base 10) transformed prior to separate statistical analyses. For each parameter, a mixed model analysis of variance (‘Anova’) was performed on transformed data, including terms for Run (random block effect) and Antibody.

[3] = target: T2, Recombinant human LAG-3 ECD-His6; experiment: SPR Biacore T100, Anova comparison of KD, 3 runs
Experimental: as §1, §2

EC50 (read off the curve) [1]	kd ratio against H5L7 [2]	KD ratio against H5L7 [3]	fold decrease of kd against IMP731 [2]	kd ratio against IMP731 [2]	KD ratio against IMP731 [3]	fold decrease of KD against IMP731 [3]	Binder
~0.01 µg/mL							IMP731 (antibody, human IgG1, kappa, V domains shown, Chimeric anti-LAG-3 antibody, parent of the humanised variants; also called chimeric IMP731; chimeric control) VH: QVQLKESGPGLVAPSQSLSITCTVSGFSLTAYGVNWVRQPPGKGLEWLGMIWDDGSTDYNSALKSRLSISKDNSKSQVFLKMNSLQTDDTARYYCAREGDVAFDYWGQGTTLTVSS VL: not shown
~0.02 µg/mL	1.12	1.05					H5L7BW (antibody, human IgG1, kappa, V domains shown, afucosylated Fc glycan (expressed in BioWa Potelligent FUT8 knock-out CHO cell line), differs only by lack of fucose; also called afucosylated H5L7BW; afucosylated H5L7) VH: QVQLQESGPGLVKPSETLSLTCTVSGFSLTAYGVNWIRQPPGKGLEWIGMIWDDGSTDYDSALKSRVTISVDTSKNQFSLKLSSVTAADTAVYYCAREGDVAFDYWGQGTLVTVSS VL: DIQMTQSPSSLSASVGDRVTITCKSSQSLLNPSNQKNYLAWYQQKPGKAPKLLVYFASTRDSGVPSRFSGSGSGTDFTLTISSLQPEDFATYYCLQHFGTPPTFGQGTKLEIKR
~0.02 µg/mL			~10 fold	0.155	0.0774	10 fold	H5L7 (antibody, human IgG1, kappa, V domains shown, wild type fucosylated form; also called H5L7WT; fucosylated H5L7) VH: QVQLQESGPGLVKPSETLSLTCTVSGFSLTAYGVNWIRQPPGKGLEWIGMIWDDGSTDYDSALKSRVTISVDTSKNQFSLKLSSVTAADTAVYYCAREGDVAFDYWGQGTLVTVSS VL: DIQMTQSPSSLSASVGDRVTITCKSSQSLLNPSNQKNYLAWYQQKPGKAPKLLVYFASTRDSGVPSRFSGSGSGTDFTLTISSLQPEDFATYYCLQHFGTPPTFGQGTKLEIKR
